Target: bromelain-released influenza hemagglutinin (X31) (influenza virus X31)
Assay: […]

Q: With “bromelain-released influenza hemagglutinin (X31) (domain or fragment)” as the substance, how does the stoichiometry N read?
A: 3
